From the DeepSol protein solubility set come the findings set out here.

A short description of the data set: soluble on expression in E. coli; label from the status in PepcDB or PDB records.
Turning to “MGSDKIHHHHHHMKKVAIVQSNYIPWKGYFDMIAAVDEFILYDDMQYTRRDWRNRNQIKTPQGVQWLTVPVLVKGKYHQKIRETEIDGTDWAAAHWKALVQNYRRSPHFTEIAAWLEPLYLAETFTHISQLNRRFIEAICNYLGIKTVIKNSWDYTLLDGKTERLADLCVQAGGTEYISGPAAKDYVDEQVFKENGIKLTWFDYIGYPEYQQLWGEFTHGVTILDLLLNCGKNAKRYMKYVE”, the “soluble on expression in E. coli” value was “not soluble”.
“MMAKDFYSAIEDRRSIYAISKEQVVSDEKIQEVIYHAVKHTPSAFNSQSARVVVLLGEQHDKLWDITKETLRKIVPENNFAPTEEKMNAFKSGYGTVLYFEDSEVVESLQANFALYKDNFPTWSQQSSGMLQFAIWTALEIEGFGATLQHYNPLIDEEVRKEWDVPANWKLIAQMPFGKPVVQAGEKEFQPLENRVKIYK”: the “soluble on expression in E. coli” value is “not soluble”.
As for “MEQQRSFQTETGGHLYLVPTPIGNLDDMTFRAVKTLTAVDLIAAEDTRNTQKLLNHFEITTKQISFHEHNTQERIPQLIAKLKQGMQIAQVSDAGMPSISDPGHELVNACIDAHIPVVPLPGANAGLTALIASGLAPQPFYFYGFLDRKPKDRKAEIAGLAQRPETLIFYEAPHRLKKTLQNLAAGFGDERPAVLCRELTKRYEEFLRGSLAELANWAATDTVRGEFVVLVGGNPAPTTAATTAVDLSEPIDVQVDRLIAAGEKPNDAIKEVAKLRGAKKQEIYRQYHHLDEE”, the entry is “soluble”; as for “MERARVIAEAAAHISRELGAAAIMVSGDLNFEGIETGEIPVYYISMRPKSIIDHLVATSKDGKSPVKELGDQLTREASGNVEYVQHAAAIEYALEGPKNGIVVGVIETRGSSSIIVHNLDDNPLIKAMKECEERVNPEVMNAVLKIAFDIALTGREGKKIGAAFIVGDSEEVLKRSHQIILNPYEGHEEAHRNILDRRNWESIKEFALLDGVFVIDETGIVRAAGRYLDVDGKNIDIEKGLGGRHVSAAAISRDTVAISVTVSESGGVLRVYKDAKETICMESLQPASRYV”, “soluble”; as for “MGSDKIHHHHHHMVMGDITRIDTVQQYCDLFEVEALHPLVSVVNCYEVQPIRHSKKLYNIYAVLLKDTDCGTMNYGRSLYDYEKGSMLFIAPGQVMGSDDDGSLHQPAGWALMFHPELLRGTSLAHIIKEYSYFSYNANEALHLSEQERKVVIECINNVAEELRHPIDKHSRSLIIDTMKLLLDRCIRFYDRQFITRENANNDLLARFELLLNNYYHSALPTSKGIPTVQYCADQLCLSTNYFSDLVKKETGMSAIKHIQQKIMDIAKERIMNTQKSISQISDEMGFQYPQHFTRWFKKMEGCTPNEYRNEIIKQAIN”, “not soluble”.
In the case of “MFSRPGLPVEYLQVPSASMGRDIKVQFQGGGPHAVYLLDGLRAQDDYNGWDINTPAFEEYYQSGLSVIMPVGGQSSFYTDWYQPSQSNGQNYTYKWETFLTREMPAWLQANKGVSPTGNAAVGLSMSGGSALILAAYYPQQFPYAASLSGFLNPSEGWWPTLIGLAMNDSGGYNANSMWGPSSDPAWKRNDPMVQIPRLVANNTRIWVYCGNGTPSDLGGDNIPAKFLEGLTLRTNQTFRDTYAADGGRNGVFNFPPNGTHSWPYWNEQLVAMKADIQHVLNGATPPAAPAAPAALEHHHHHH”, the “soluble on expression in E. coli” value was “soluble”.
In the case of “MSWFISRKDIAYISRGAKLLGCGGGGDTKTTQRLLESIMKEDDQINVLQYEDLTEQVVATVCFAGSPILYEEQLPRGDEGQMVFQEYQLKTNKKIDAVISAEIGGMNALIPLVVALQTGCAVVDGDGMGRAFPEFTMTTFYMHGLPISPLILLTRDGKQHLIEGAANDRIVRDNRQLLNMHGGFGHFICCGADANVVKNMMVSGTLKLAYRLGRAMEQDQLSAAAGWTAVEDEWENSIYGKPTLLIKGTVESVVRTFDQEQIVGELTIIGKQRFIGTTLTVSFHNEFIAVKKEGQYLVMVPDLIIIVNAKTFLPYTTNEIQRGMSVLIYAIPAPNVLRQKQMIDHVGPQAYGLDVPYEPFFLEHHHHHH”, the “soluble on expression in E. coli” value was “not soluble”.
The same measure for “MGLTAMGLTTMGLTTVGLATMGATTKISQQHFFKFSRSDPIVLLQYSYSTTTVPRPYPTNNSKPISLQKTKTQFFLNYSNPTVLLQYLYSTTTVPRPYPTTNPKLISLQQPKTPFLSPRIRLVLREHERCRGALSDVWVAGAARGAVRCAKLYNKTRHVIRKISANKRKLFPLFYCYTYIHTYKNQVSPEKNANQKGKRMFPRFMVGVALIFELNNYDIETSCSHSSSSFSARLSSADYEVYWARALQILHVGGVEIDEFGGG”: “not soluble”; for “MSLNNVIFSQKLYDTAQMIVDGCMGDADPACQTACPMHTDVKQYVRMAGEGNFQGALDLIRSKLFLPQTLGRICAHPCEASCRRNTEFGQPISVAGIKRFVAEKMDNQDHWDLNIAPLTNKHIAIVGAGPAGAQAAIELRRQGHEVTIYEKLDVYGGMMRVGIPEYRLPRDVIDFEYSYLAMLGIKTQFGVEIGKDISFDTLRSEHDAVILAHGAHVGSIIPLPGHDNDGVFSAVEYLKEISETRQFPRACKRVMVIGGGDVAMDCARSSWRIGASDVYQCSLESLESLPASQIEIDESLEEGVEFNAGWGPVAIEHENGKVTGITIKKVLSIFDEQGNFAPQYSEESKTISVDTVVFATGQIVADITDGALEQTRGGRYVVDKQTLASSLEDVFVAGDACGGNIVIEAMALGRKAAMSVERFLTARPLTEDRDFEQEYSYSSRLDVPLPKGTVDTPRLHGELRDAEERKQDFAQVDLGFTEEQIKQEASRCLQCSCKLCMTECIMMNDFSDCPKTIFSDFVNNKSMDPLLAYSCNACDQCTIVCPKDFPMKEMFLGARTDFVKANNGESPMPGHKAINMHQKLGFSKIFTMAKRAVSTKEGHHHHHH”: “not soluble”.
As to “MSWLRTELWTAEVVYTGFGTPMLRGALAVQGGFVVGQGSLEELRARFPEGEVVHKGLALLPPPVNAHTHLDLSLLPLYRGPFAGFLSHVVAHRERRGLEGAKRGLEELLASGVGAFADIVFKDEVMDFLLQESPLPGVAFYEVFAPEPSLAEEVYRAVRRKVEAWRRREGKVKVGLSPHAPYSVSPPLLKRLAEWARAEGLPLMVHAAESPEEVAFLLRGEGPLREVYGRFAKTPWTPPGTTPVRHLHALGVLGPTTLLVHGVQVDEEEVGLLAETGTKVVLCPRSNRNLEVGEAPLALYAKHGVELALGTDSRGSSPDLDVKNEARFLWGRAEPRLLVRALTRGGYRALGLPTPRLTRGTPLSLVHFL”, the “soluble on expression in E. coli” value is listed as “soluble”.
As for “GSHMKEPKLSPKQERFIEEYFINDMNATKAAIAAGYSKNSASAIGAENLQKPAIRARIDARLK”, the entry is “soluble”; as for “KKMREEGVHEGCMEQIYRMFSQRLYKEDGSAAEVDDMNRLRLDDWELREDIQQHCRELWPQITTENLKELTDYVEYKEEFLKLFGFGVEGVDYEADVNPAVETDFIQI”, “not soluble”; as for “MDQECIENYAKVNGIYIYYKLCKAPEEKAKLMTMHGGPGMSHDYLLSLRDMTKEGITVLFYDQFGCGRSEEPDQSKFTIDYGVEEAEALRSKLFGNEKVFLMGSSYGGALALAYAVKYQDHLKGLIVSGGLSSVPLTVKEMNRLIDELPAKYRDAIKKYGSSGSYENPEYQEAVNYFYHQHLLRSEDWPPEVLKSLEYAERRNVYRIMNGPNQFTITGTIKDWDITDKISAIKIPTLITVGEYDEVTPNVARVIHEKIAGSELHVFRDCSHLTMWEDREGYNKLLSDFILKHL”, “soluble”.
As for “MRQHAAPCTQLITWSIEMDNALDFLLEQAQESEDKAVLALSKARSELDSYYHQLRQIEQYRLEYCQQLVERGKSGLTASQYGHLNRFLTQLDETLAKQKSAEQHFRLQVENCEQHWMNMRQKRKSYQWLMEKKQTERQLLQEKREQKQMDEFSTLMFNRRRLSS”, the entry is “not soluble”; as for “MGSDKIHHHHHHMQATRESRLIFNINLIYGRLQRNCYGLVALLLCFTSTSAAALDSPVFYKIEYQQQQAYLLGSIHVGRQDFYPLAQHIESAFKQSDALVVEADISQGDTGALLQRYGGLPAEIAADVNATRQEYCQSHQTLCQALAPYAPWLQSAQISMGRFGQLGYSAEQGVDAYFMANRSGKNVVELESIQFQFELISSFSTATQLQMLDDSINASDAEMLDLIYAWRQGDGNALANIMESQAGDADELLEKLLWQRNHTMAQKIIQLLQSKTHKQLFIVVGAGHIVGQQAIPDLLKQQGATITRCSFLQC”, “not soluble”.
Turning to “MLKVIDVDFVSDHTLELTFNDGYQGYADLSVYFKKAPFSEIKDFKRFSLTRDGSLNWDGNELTAATLRDITKGSQKSVELSFNVQEMEAVIKQASWESMMEGRPDILQAAIRSYVEQFGHGQVIAKAGIKSRTSAYRSLKPETTPNFGTLVQLGHAVIELAKDRTVANKEPRI”, the “soluble on expression in E. coli” value is given as “not soluble”.
In the case of “MEREQALWIVKQQLTEQRYEHTLGVVETAVKLAKQYGADAKKAELAAIFHDYAKFRPVEEMKQIILAQNMPNDLLAYNSELWHAPVGAYLVQTEVGIDDPEVLDAIRYHTSGRAGMTVLEKIIYLADYIEPGRRFPGVDDVRRLAEEDLNRALLQAVKNTIAFLLEKRQLIYPDTIHAYNSLMREVKGEAKR”, the “soluble on expression in E. coli” value is listed as “not soluble”.
The same measure for “MAWTSTLPAHLLNLIKNSKYVHVATCSKDCIPSVALMNYIYVPGEKLFGQTDNKNDYIIFVSPQDTQKFYNIKENPKVALLFHDWIIANNLSVGKESISGTPTPTSIPHEEQRQSELLNLLQELNQAELNQMSASIGGETEIVNPESEESKYYKDLILKANPDAKAFIFEKNTAVVKVRIDNARVSNNENRTMFLSKGKS”: “soluble”; for “MSLDDGTGLFTIGQLARRTGLSVRTIRYWSDEGALPPVTRSSGGYRLYDAGSVARLELIRTLRELGLGLDDVREVLAGETTVAEVAATHVTALDAQIRALKVTRAVLSTVARRGSTAEEMTLMNKLARLSAAERRRILEEFADEMFRGLDTADPVIRERMRNTAVDLPDEPTPEQVDAWVELVELLQDPEFRAQMRAAAEFNAADRGHDSPAGASLWFVRRLVQLAADARQRGEGHHHHHH”: “not soluble”; for “MSLSKHSHYKDKKKFYKKVEQFKEFQERISVHFQNEKLLYQAFTHSSYVNEHRKKPYEDNERLEFLGDAVLELTISRFLFAKYPAMSEGDLTKLRAAIVCEPSLVSLAHELSFGDLVLLGKGEEMTGGRKRPALLADVFEAFIGALYLDQGLEPVESFLKVYVFPKINDGAFSHVMDFKSQLQEYVQRDGKGSLEYKISNEKGPAHNREFEAIVSLKGEPLGVGNGRSKKEAEQHAAQEALAKLQKHHTKQEGGSHHHHHH”: “soluble”.
Consider “MGSDKIHHHHHHMPKIWTERIFDDPEIYVLRIDDDRIRYFEAVWEIPEGISYNAYLVKLNGANVLIDGWKGNYAKEFIDALSKIVDPKEITHIIVNHTEPDHSGSLPATLKTIGHDVEIIASNFGKRLLEGFYGIKDVTVVKDGEEREIGGKKFKFVMTPWLHWPDTMVTYLDGILFSCDVGGGYLLPEILDDSNESVVERYLPHVTKYIVTVIGHYKNYILEGAEKLSSLKIKALLPGHGLIWKKDPQRLLNHYVSVAKGDPKKGKVTVIYDSMYGFVENVMKKAIDSLKEKGFTPVVYKFSDEERPAISEILKDIPDSEALIFGVSTYEAEIHPLMRFTLLEIIDKANYEKPVLVFGVHGWAPSAERTAGELLKETKFRILSFTEIKGSNMDERKIEEAISLLKKELE”, for which the “soluble on expression in E. coli” value is “soluble”.
